# Test results taken from US20200230057A1, “Pharmaceutical Compositions, Methods for Preparation using Lipid Vesicle Particles of Defined Size, and Uses Thereof” (IMMUNOVACCINE TECHNOLOGIES INC., priority 2017, published 2020).
# Experiment: HPLC peptide recovery before and after freeze-drying
# Details: set specification 0.40-0.60 mg/mL for neoantigens, 0.2-0.3 mg/mL for A16L
# Description: The composition prepared as described in Example 4, containing 14 neoantigens and the A16L T-helper peptide, was subjected to HPLC analysis to evaluate the peptide stability before and after freeze-drying.
# Experimental Conditions: • IPQC Solutions: Dilute the IPQC solutions with Methanol and then with Mobile Phase A, e.g. as follows: • 100 mg In-Process Testing Solution • +450 μL Methanol, mix • +450 μL Mobile Phase A, mix • Mix by vortexing. Samples containing lipids will be slightly hazy. Dilution factor=10×. • Lyophilisates (for Release and Stability Testing): Solubilize the lyophilisate with Ultrapure lab water. Add 3-4 glass beads and vortex vigorously for 1 minute to assure complete homogenization. Dilute the solution with Methanol and subsequently with Mobile Phase A, e.g. as follows: • 100 mg In-Process Testing Solution • +450 μL Methanol, mix • +450 μL Mobile Phase A, mix • Mix by vortexing. The sample preparations will be slightly hazy. Dilution factor=20×.
# The dried preparations were solubilized in water for HPLC analysis. T=0 is the day in which the samples were removed from the freeze-dryer. T=1M and T=3M are 1 month and 3 months after T=0, respectively, with the dried preparation having been stored at −20° C.
row,Sequence,Peptide concentration relative to set specification
1,VVDRNPQFLDPVLAYLMKGLCEKPLAS (Mut17) [Mut 17],outside the set specification
2,IPSGTTILNCFHDVLSGKLSGGSPGVP (Mut29A) [Mut 29a],outside the set specification
3,CGTAFFINFIAIYHHASRAIPFGTMVA (Mut36) [Mut 36],consistently outside the set specification
